{"source": "paper doi:10.1101/2021.09.16.459956", "molecular_target": "Paracoccidioides americana (Pb03) Cbp1 (Paracoccidioides americana (Pb03))", "experiment": "crystal structure"}
{"substance": "Paracoccidioides americana (Pb03) Cbp1 (natural protein)", "values": [{"measurement": "stoichiometry N", "value": 2}]}
